Measured values: the supplement of paper PMC5998384

Experiments:
HeLa Kyoto [1] = assay: solubility in G1/S (NP-40 vs SDS abundance) (log2 ratio); higher = more soluble; conditions: cell cycle stage: G1/S
HeLa Kyoto [2] = assay: melting temperature (median over replicates), in situ; higher = more thermally stable
HeLa Kyoto [3] = assay: solubility change mitosis vs G1/S (difference of NP-40 vs SDS log2 ratios) (log2 ratio difference); higher = more soluble in mitosis
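For melting temperature (median over replicates), in situ in this document: HeLa Kyoto cells synchronized by double thymidine or nocodazole block, proteins quantified by TMT10plex mass spectrometry, three independent biological replicates.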
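For solubility change mitosis vs G1/S (difference of NP-40 vs SDS log2 ratios) in this document: synchronized HeLa Kyoto cells (double thymidine block for G1/S, nocodazole release for mitosis), protein amounts in NP-40 versus SDS lysates quantified by mass spectrometry, three biological replicates.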
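For solubility in G1/S (NP-40 vs SDS abundance) in this document: HeLa Kyoto cells arrested at G1/S by double thymidine block, proteins quantified by TMT10plex mass spectrometry in mild NP-40 versus SDS extracts, three biological replicates.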

Substance | solubility in G1/S (log2) (HeLa Kyoto [1]) | melting temperature (HeLa Kyoto [2]; cell cycle stage: G1/S) | melting temperature (HeLa Kyoto [2]; cell cycle stage: mitosis) | solubility change mitosis (log2) (HeLa Kyoto [3])
MEELTIWEQHTATLSKDPRRGFGIAISGGRDRPGGSMVVSDVVPGGPAEGRLQTGDHIVMVNGVSMENATSAFAIQILKTCTKMANITVKRPRRIHLPATKASPSSPGRQDSDEDDGPQRVEEVDQGRGYDGDSSSGSGRSWDERSRRPRPGRRGRAGSHGRRSPGGGSEANGLALVSGFKRLPRQDVQMKPVKSVLVKRRDSEEFGVKLGSQIFIKHITDSGLAARHRGLQEGDLILQINGVSSQNLSLNDTRRLIEKSEGKLSLLVLRDRGQFLVNIPPAVSDSDSSPLEDISDLASELSQAPPSHIPPPPRHAQRSPEASQTDSPVESPRLRRESSVDSRTISEPDEQRSELPRESSYDIYRVPSSQSMEDRGYSPDTRVVRFLKGKSIGLRLAGGNDVGIFVSGVQAGSPADGQGIQEGDQILQVNDVPFQNLTREEAVQFLLGLPPGEEMELVTQRKQDIFWKMVQSRVGDSFYIRTHFELEPSPPSGLGFTRGDVFHVLDTLHPGPGQSHARGGHWLAVRMGRDLREQERGIIPNQSRAEQLASLEAAQRAVGVGPGSSAGSNARAEFWRLRGLRRGAKKTTQRSREDLSALTRQGRYPPYERVVLREASFKRPVVILGPVADIAMQKLTAEMPDQFEIAETVSRTDSPSKIIKLDTVRVIAEKDKHALLDVTPSAIERLNYVQYYPIVVFFIPESRPALKALRQWLAPASRRSTRRLYAQAQKLRKHSSHLFTATIPLNGTSDTWYQELKAIIREQQTRPIWTAEDQLDGSLEDNLDLPHHGLADSSADLSCDSRVNSDYETDGEGGAYTDGEGYTDGEGGPYTDVDDEPPAPALARSSEPVQADESQSPRDRGRISAHQGAQVDSRHPQGQWRQDSMRTYEREALKKKFMRVHDAESSDEDGYDWGPATDL [TJP3] | -0.105 | 50.3 °C | 50.8 °C | 0.0692
MSEAYFRVESGALGPEENFLSLDDILMSHEKLPVRTETAMPRLGAFFLERSAGAETDNAVPQGSKLELPLWLAKGLFDNKRRILSVELPKIYQEGWRTVFSADPNVVDLHKMGPHFYGFGSQLLHFDSPENADISQSLLQTFIGRFRRIMDSSQNAYNEDTSALVARLDEMERGLFQTGQKGLNDFQCWEKGQASQITASNLVQNYKKRKFTDMED [GINS3] | 0.471 | 51.7 °C | 51.7 °C | 0.225
MSATSVDTQRTKGQDNKVQNGSLHQKDTVHDNDFEPYLTGQSNQSNSYPSMSDPYLSSYYPPSIGFPYSLNEAPWSTAGDPPIPYLTTYGQLSNGDHHFMHDAVFGQPGGLGNNIYQHRFNFFPENPAFSAWGTSGSQGQQTQSSAYGSSYTYPPSSLGGTVVDGQPGFHSDTLSKAPGMNSLEQGMVGLKIGDVSSSAVKTVGSVVSSVALTGVLSGNGGTNVNMPVSKPTSWAAIASKPAKPQPKMKTKSGPVMGGGLPPPPIKHNMDIGTWDNKGPVPKAPVPQQAPSPQAAPQPQQVAQPLPAQPPALAQPQYQSPQQPPQTRWVAPRNRNAAFGQSGGAGSDSNSPGNVQPNSAPSVESHPVLEKLKAAHSYNPKEFEWNLKSGRVFIIKSYSEDDIHRSIKYSIWCSTEHGNKRLDSAFRCMSSKGPVYLLFSVNGSGHFCGVAEMKSPVDYGTSAGVWSQDKWKGKFDVQWIFVKDVPNNQLRHIRLENNDNKPVTNSRDTQEVPLEKAKQVLKIISSYKHTTSIFDDFAHYEKRQEEEEVVRKERQSRNKQ [YTHDF1] | 0.14 | – | 47.8 °C | -0.0272
MDLPVGPGAAGPSNVPAFLTKLWTLVSDPDTDALICWSPSGNSFHVFDQGQFAKEVLPKYFKHNNMASFVRQLNMYGFRKVVHIEQGGLVKPERDDTEFQHPCFLRGQEQLLENIKRKVTSVSTLKSEDIKIRQDSVTKLLTDVQLMKGKQECMDSKLLAMKHENEALWREVASLRQKHAQQQKVVNKLIQFLISLVQSNRILGVKRKIPLMLNDSGSAHSMPKYSRQFSLEHVHGSGPYSAPSPAYSSSSLYAPDAVASSGPIISDITELAPASPMASPGGSIDERPLSSSPLVRVKEEPPSPPQSPRVEEASPGRPSSVDTLLSPTALIDSILRESEPAPASVTALTDARGHTDTEGRPPSPPPTSTPEKCLSVACLDKNELSDHLDAMDSNLDNLQTMLSSHGFSVDTSALLDLFSPSVTVPDMSLPDLDSSLASIQELLSPQEPPRPPEAENSSPDSGKQLVHYTAQPLFLLDPGSVDTGSNDLPVLFELGEGSYFSEGDGFAEDPTISLLTGSEPPKAKDPTVS [HSF1] | 0.523 | 47.9 °C | 49.8 °C | -0.148
ABTB2 | 0.00296 | – | 48.8 °C | -0.181
MASQGRRRRPLRRPETVVPGEATETDSERSASSSEEEELYLGPSGPTRGRPTGLRVAGEAAETDSEPEPEPEPTAAPRDLPPLVVQRESAEEAWGTEEAPAPAPARSLLQLRLAESQARLDHDVAAAVSGVYRRAGRDVAALASRLAAAQAAGLAAAHSVRLARGDLCALAERLDIVAGCRLLPDIRGVPGTEPEKDPGPRA [BLOC1S3] | 0.568 | 52.6 °C | 54.9 °C | 0.0331
BCL9L | 0.294 | 55.7 °C | 54.4 °C | 0.083
MARDLIGPALPPGFKARGTAEDEERDPSPVAGPALPPNYKSSSSDSSDSDEDSSSLYEEGNQESEEDDSGPTARKQRKNQDDDDDDDDGFFGPALPPGFKKQDDSPPRPIIGPALPPGFIKSTQKSDKGRDDPGQQETDSSEDEDIIGPMPAKGPVNYNVTTEFEKRAQRMKEKLTKGDDDSSKPIVRESWMTELPPEMKDFGLGPRTFKRRADDTSGDRSIWTDTPADRERKAKETQEARKSSSKKDEEHILSGRDKRLAEQVSSYNESKRSESLMDIHHKKLKSKAAEDKNKPQERIPFDRDKDLKVNRFDEAQKKALIKKSRELNTRFSHGKGNMFL [GPALPP1] | 0.0784 | 55.1 °C | 56.1 °C | 0.245
H2AFV | -0.332 | 52.5 °C | – | 0.429
MELIQDTSRPPLEYVKGVPLIKYFAEALGPLQSFQARPDDLLISTYPKSGTTWVSQILDMIYQGGDLEKCHRAPIFMRVPFLEFKAPGIPSGMETLKDTPAPRLLKTHLPLALLPQTLLDQKVKVVYVARNAKDVAVSYYHFYHMAKVHPEPGTWDSFLEKFMVGEVSYGSWYQHVQEWWELSRTHPVLYLFYEDMKENPKREIQKILEFVGRSLPEETVDFVVQHTSFKEMKKNPMTNYTTVPQEFMDHSISPFMRKGMAGDWKTTFTVAQNERFDADYAEKMAGCSLSFRSEL [SULT1A1] | 0.0556 | – | 49.2 °C | -0.0949
MYQDYPGNFDTSSRGSSGSPAHAESYSSGGGGQQKFRVDMPGSGSAFIPTINAITTSQDLQWMVQPTVITSMSNPYPRSHPYSPLPGLASVPGHMALPRPGVIKTIGTTVGRRRRDEQLSPEEEEKRRIRRERNKLAAAKCRNRRRELTEKLQAETEELEEEKSGLQKEIAELQKEKEKLEFMLVAHGPVCKISPEERRSPPAPGLQPMRSGGGSVGAVVVKQEPLEEDSPSSSSAGLDKAQRSVIKPISIAGGFYGEEPLHTPIVVTSTPAVTPGTSNLVFTYPSVLEQESPASPSESCSKAHRRSSSSGDQSSDSLNSPTLLAL [FOSL2] | 0.191 | 53.9 °C | 55.1 °C | 0.106
MQSPAVLVTSRRLQNAHTGLDLTVPQHQEVRGKMMSGHVEYQILVVTRLAAFKSAKHRPEDVVQFLVSKKYSEIEEFYQKLSSRYAAASLPPLPRKVLFVGESDIRERRAVFNEILRCVSKDAELAGSPELLEFLGTRSPGAAGLTSRDSSVLDGTDSQTGNDEEAFDFFEEQDQVAEEGPPVQSLKGEDAEESLEEEEALDPLGIMRSKKPKKHPKVAVKAKPSPRLTIFDEEVDPDEGLFGPGRKLSPQDPSEDVSSVDPLKLFDDPDLGGAIPLGDSLLLPAACESGGPTPSLSHRDASKELFRVEEDLDQILNLGAEPKPKPQLKPKPPVAAKPVIPRKPAVPPKAGPAEAVAGQQKPQEQIQAMDEMDILQYIQDHDTPAQAAPSLF [HS1BP3] | 0.292 | 49.7 °C | 50.5 °C | 0.119
MSSRSTKDLIKSKWGSKPSNSKSETTLEKLKGEIAHLKTSVDEITSGKGKLTDKERHRLLEKIRVLEAEKEKNAYQLTEKDKEIQRLRDQLKARYSTTTLLEQLEETTREGERREQVLKALSEEKDVLKQQLSAATSRIAELESKTNTLRLSQTVAPNCFNSSINNIHEMEIQLKDALEKNQQWLVYDQQREVYVKGLLAKIFELEKKTETAAHSLPQQTKKPESEGYLQEEKQKCYNDLLASAKKDLEVERQTITQLSFELSEFRRKYEETQKEVHNLNQLLYSQRRADVQHLEDDRHKTEKIQKLREENDIARGKLEEEKKRSEELLSQVQFLYTSLLKQQEEQTRVALLEQQMQACTLDFENEKLDRQHVQHQLHVILKELRKARNQITQLESLKQLHEFAITEPLVTFQGETENREKVAASPKSPTAALNESLVECPKCNIQYPATEHRDLLVHVEYCSK [CEP55] | 0.417 | 48.1 °C | 48.9 °C | 0.238
